From patent US20230406921A1
Substitutions are numbered along the chain they refer to.

B1: h140Hm13/h140Lm11 (antibody, V domains shown)
VH: EVQLVQSGAEVKKPGASVKVSCKASGYKFTNYVMSWVRQAPGQRLEWMGYINPYNDAIKYNEKFTGRVTITRDTSASTAYMELSSLRSEDTAVYYCAREGDFYANYGRLGFAYWGQGTLVTVSS
VL: DIQMTQSPSSLSASVGDRVTITCRASQDITNYLNWYQQKPGKAPKLLIYYTSRLSSGVPSRFSGSGSGTDYTFTISSLQPEDIATYFCQQGDTRPYTFGGGTKVEIK
B2: h140Hm13/h140Lm12 (antibody, V domains shown)
VH: B1 VH
VL: B1 VL with S55Q
B3: h140Hm13/h140Lm17 (antibody, V domains shown)
VH: B1 VH
VL: B1 VL with S55Q, R94E
B4: h140Hm13/h140Lm16 (antibody, V domains shown)
VH: B1 VH
VL: B1 VL with S55Q, R94S
B5: h140Hm13/h140Lm14 (antibody, V domains shown)
VH: B1 VH
VL: B1 VL with S55Q, R94Y
B6: h140Hm13/h140Lm15 (antibody, V domains shown)
VH: B1 VH
VL: B1 VL with S55Q, R94K
B7: h140Hm13/h140Lm13 (antibody, V domains shown)
VH: B1 VH
VL: B1 VL with S55H, R94F
B8: h140Hm13/h140Lm18 (antibody, V domains shown)
VH: B1 VH
VL: B1 VL with S55Q, R94N

Target: CD47 on the surface of human red blood cells (human) (UniProt Q08722)
Assay: FACS, hRBC, 500 nM

Row | Binder | FACS (MFI)
1 | B1 | 789
2 | B2 | 946
3 | B3 | 689
4 | B4 | 721
5 | B5 | 921
6 | B6 | 954
7 | B7 | 1760
8 | B8 | 697
